Results reported in PMC6409689, “Characteristics of the First Protein Tyrosine Phosphatase with Phytase Activity from a Soil Metagenome” (Genes, 2019).

Key:
[1] = tested on: O=[N+]([O-])c1ccc(OP(=O)(O)O)cc1; assay: purified protein; conditions: pH 5.6, 45 °C, printed kcat, Km and kcat/Km do not agree
[2] = molecular target: Pho16B (uncultured organism, UniProt A0A3G1QTG4); assay: phosphate release, ammonium molybdate assay at […] nm; Michaelis-Menten fit; conditions: pH 5.6, 45 °C; printed kcat, Km and kcat/Km do not agree
Sequence of Pho16B (A0A3G1QTG4 1-376): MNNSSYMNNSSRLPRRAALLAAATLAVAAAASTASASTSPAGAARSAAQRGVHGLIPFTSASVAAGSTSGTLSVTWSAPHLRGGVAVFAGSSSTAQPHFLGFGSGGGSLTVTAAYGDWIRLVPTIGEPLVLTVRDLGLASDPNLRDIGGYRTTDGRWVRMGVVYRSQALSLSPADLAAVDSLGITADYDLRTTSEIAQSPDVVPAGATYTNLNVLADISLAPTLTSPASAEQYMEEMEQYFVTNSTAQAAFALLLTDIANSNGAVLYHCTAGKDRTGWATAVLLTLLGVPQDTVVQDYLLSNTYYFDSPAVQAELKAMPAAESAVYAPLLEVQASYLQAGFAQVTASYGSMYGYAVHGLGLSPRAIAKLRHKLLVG

## Pho16B (uncultured organism)
[1]
  Km: 1026 ± 140 µM

## Naphthyl phosphate
[2]
  Km: 966 ± 180 µM
